# Source: US20240124528A1 (ACADEMIA SINICA, published 2024)
# Numbering of substitutions follows the chain as printed. In names and notes the source's numbering stands.
# T1: HA-TRIM56 (TRIM56-HA, HA-tagged tripartite-motif 56) (UniProt Q9BRZ2 1-755)
# T1 construct: also called HA-tagged TRIM56; HA-TIM56; not shown: HA tag of the C-HA vector
# T1 sequence (looked up): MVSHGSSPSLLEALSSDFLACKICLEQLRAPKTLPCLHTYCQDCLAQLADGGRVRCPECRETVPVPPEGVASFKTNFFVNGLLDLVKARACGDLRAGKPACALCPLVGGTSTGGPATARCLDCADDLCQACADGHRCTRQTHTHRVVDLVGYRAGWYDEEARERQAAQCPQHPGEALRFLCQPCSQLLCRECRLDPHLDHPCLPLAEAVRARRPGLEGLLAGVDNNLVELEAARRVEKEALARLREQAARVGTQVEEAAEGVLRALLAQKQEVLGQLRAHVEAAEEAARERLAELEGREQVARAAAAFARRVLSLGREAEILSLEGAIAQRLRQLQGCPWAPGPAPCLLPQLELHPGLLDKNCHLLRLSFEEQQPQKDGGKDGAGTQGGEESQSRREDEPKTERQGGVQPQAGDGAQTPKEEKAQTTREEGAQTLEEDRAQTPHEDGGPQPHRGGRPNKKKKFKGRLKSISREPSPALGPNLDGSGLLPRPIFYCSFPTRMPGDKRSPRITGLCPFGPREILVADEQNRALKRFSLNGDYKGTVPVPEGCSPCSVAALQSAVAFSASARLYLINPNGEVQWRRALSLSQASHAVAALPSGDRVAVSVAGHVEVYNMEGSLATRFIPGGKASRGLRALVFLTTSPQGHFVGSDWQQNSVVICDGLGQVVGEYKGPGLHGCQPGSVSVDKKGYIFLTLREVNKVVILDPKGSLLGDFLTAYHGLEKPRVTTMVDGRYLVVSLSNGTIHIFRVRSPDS
# T2: TRIM56 (tripartite-motif 56), endogenous (human, UniProt Q9BRZ2 1-755)
# T2 construct: also called ubiquitin E3 ligase TRIM56
# T2 sequence (looked up): T1 sequence (looked up)
# B1: IL-17RB-Flag (Flag-tagged IL-17RB, wild type) (receptor)
# chain: REPTVQCGSETGPSPEWMLQHDLIPGDLRDLRVEPVTTSVATGDYSILMNVSWVLRADASIRLLKATKICVTGKSNFQSYSCVRCNYTEAFQTQTRPSGGKWTFSYIGFPVELNTVYFIGAHNIPNANMNEDGPSMSVNFTSPGCLDHIMKYKKKCVKAGSLWDPNITACKKNEETVEVNFTTTPLGNRYMALIQHSTIIGFSQVFEPHQKKQTRASVVIPVTGDSEGATVQLTPYFPTCGSDCIRHKGTVVLCPQTGVPFPLDNNKSKPGGWLPLLLLSLLVATWVLVAGIYLMWRHERIKKTSFSTTTLLPPIKVLVVYPSEICFHHTICYFTEFLQNHCRSEVILEKWQKKKIAEMGPVQWLATQKKAADKVVFLLSNDVNSVCDGTCGKSEGSPSENSQDLFPLAFNLFCSDLRSQIHLHKYVVVYFREIDTKDDYNALSVCPKYHLMKDATAFCAELLHVKQQVSAGKRSQACHDGCCSL
# notes: The construct as expressed; also called Flag-IL-17RB; Flag-tagged WT IL-17RB; not shown: Flag tag
# B2: interleukin-17 receptor B (IL-17RB), human, endogenous in pancreatic cancer cells (receptor)
# chain: B1 chain
# notes: Endogenous receptor of CFPAC1 / BxPC3 cells, precipitated from lysates or stained in situ; also called interleukin-17B receptor
# B3: IL-17RB-HA (C-terminally HA-tagged full-length IL-17RB, wild type) (receptor)
# chain: B1 chain
# notes: Full-length IL-17RB subcloned into pcDNA3.1, expressed in 293T, IL-17RB-KO BxPC3 or SU.86.86 cells; also called HA-IL-17RB; HA-tagged WT IL-17RB; not shown: HA tag, C-terminal
# B4: IL-17RB Y447F, Flag-tagged (receptor)
# chain: B1 chain with Y430F
# notes: also called Y447F mutant of IL-17RB; not shown: Flag tag
# B5: IL-17RB ΔV403˜S416 (Del-3), Flag-tagged (receptor)
# chain: REPTVQCGSETGPSPEWMLQHDLIPGDLRDLRVEPVTTSVATGDYSILMNVSWVLRADASIRLLKATKICVTGKSNFQSYSCVRCNYTEAFQTQTRPSGGKWTFSYIGFPVELNTVYFIGAHNIPNANMNEDGPSMSVNFTSPGCLDHIMKYKKKCVKAGSLWDPNITACKKNEETVEVNFTTTPLGNRYMALIQHSTIIGFSQVFEPHQKKQTRASVVIPVTGDSEGATVQLTPYFPTCGSDCIRHKGTVVLCPQTGVPFPLDNNKSKPGGWLPLLLLSLLVATWVLVAGIYLMWRHERIKKTSFSTTTLLPPIKVLVVYPSEICFHHTICYFTEFLQNHCRSEVILEKWQKKKIAEMGPVQWLATQKKAADKVVFLLSNDVNSENSQDLFPLAFNLFCSDLRSQIHLHKYVVVYFREIDTKDDYNALSVCPKYHLMKDATAFCAELLHVKQQVSAGKRSQACHDGCCSL
# notes: not shown: Flag tag
# B6: IL-17RB ΔN458˜V462 (Del-6), Flag-tagged (receptor)
# chain: REPTVQCGSETGPSPEWMLQHDLIPGDLRDLRVEPVTTSVATGDYSILMNVSWVLRADASIRLLKATKICVTGKSNFQSYSCVRCNYTEAFQTQTRPSGGKWTFSYIGFPVELNTVYFIGAHNIPNANMNEDGPSMSVNFTSPGCLDHIMKYKKKCVKAGSLWDPNITACKKNEETVEVNFTTTPLGNRYMALIQHSTIIGFSQVFEPHQKKQTRASVVIPVTGDSEGATVQLTPYFPTCGSDCIRHKGTVVLCPQTGVPFPLDNNKSKPGGWLPLLLLSLLVATWVLVAGIYLMWRHERIKKTSFSTTTLLPPIKVLVVYPSEICFHHTICYFTEFLQNHCRSEVILEKWQKKKIAEMGPVQWLATQKKAADKVVFLLSNDVNSVCDGTCGKSEGSPSENSQDLFPLAFNLFCSDLRSQIHLHKYVVVYFREIDTKDDYCPKYHLMKDATAFCAELLHVKQQVSAGKRSQACHDGCCSL
# notes: also called Del-6 (ΔN458-V462) IL-17RB; not shown: Flag tag
# B7: IL-17RB ΔK470˜Q484 (Del-7), Flag-tagged (receptor)
# chain: REPTVQCGSETGPSPEWMLQHDLIPGDLRDLRVEPVTTSVATGDYSILMNVSWVLRADASIRLLKATKICVTGKSNFQSYSCVRCNYTEAFQTQTRPSGGKWTFSYIGFPVELNTVYFIGAHNIPNANMNEDGPSMSVNFTSPGCLDHIMKYKKKCVKAGSLWDPNITACKKNEETVEVNFTTTPLGNRYMALIQHSTIIGFSQVFEPHQKKQTRASVVIPVTGDSEGATVQLTPYFPTCGSDCIRHKGTVVLCPQTGVPFPLDNNKSKPGGWLPLLLLSLLVATWVLVAGIYLMWRHERIKKTSFSTTTLLPPIKVLVVYPSEICFHHTICYFTEFLQNHCRSEVILEKWQKKKIAEMGPVQWLATQKKAADKVVFLLSNDVNSVCDGTCGKSEGSPSENSQDLFPLAFNLFCSDLRSQIHLHKYVVVYFREIDTKDDYNALSVCPKYHLMQVSAGKRSQACHDGCCSL
# notes: not shown: Flag tag
# Columns and labels:
# [1] = target: B3; assay: co-IP with anti-HA beads, 293T cells, rIL-17B (FIG. 4B)
# Experimental: The same cells as (FIG. 4C) were lysed and the whole cell lysates were directly immunoblotted with the indicated antibodies.
# (§1) For reciprocal co-IP, the whole-cell extract was incubated with anti-Flag M2 agarose (A2220, Sigma-Aldrich) or anti-HA (HA-7) agarose (A2095, Sigma-Aldrich) at 4° C. for 2 hrs with gentle agitation. […] Bradford assay (Bio-Rad) was used for determining protein concentration.
# [2] = target: the molecule itself; assay: Duolink in situ interaction assay with anti-IL-17RB (D9), CFPAC1 cells, 50 ng/ml rIL-17B (FIG. 4D)
# Experimental: DuoLink proximity ligation assay (PLA) Kit (DuoLink, DU092101, Sigma-Aldrich) was used to detect protein—protein interaction using fluorescence microscopy as in the manufacturer's protocol. […] The cells were then incubated with primary antibodies diluted in DuoLink antibody diluents for 1 hr. […] After that, the cells were washed and further incubated for 1 hrs at 37° C. with species-specific secondary antibody carrying PLA probes for hybridization, which was facilitated in close proximity (<16 nm) in the presence of two complementary oligonucleotides. After annealing and rolling-circle amplification, a detection solution consisting of fluorescently labeled oligonucleotides was added, and the slides were mounted with Fluoroshield with DAPI (GeneTex). The signal was detected as distinct fluorescent dots in the Texas red channel. Microscopy images were acquired by confocal spectral microscopy (Leica SP2/SP8X) and analyzed by LAS AF software (Leica Biosystems). Negative controls consisted of samples treated as described above but with secondary antibodies alone.
# [3] = target: B1; assay: Duolink in situ interaction assay with anti-HA and anti-Flag, IL-17RB-KO BxPC3 cells (FIG. 4C, FIG. 13D)
# Text: DuoLink proximity ligation assay (PLA) Kit (DuoLink, DU092101, Sigma-Aldrich) was used to detect protein—protein interaction using fluorescence microscopy as in the manufacturer's protocol.
# [4] = target: T1, HA-TRIM56 (TRIM56-HA, HA-tagged …); assay: co-IP in 293T cells (FIG. 6B) and native-PAGE of mixed purified proteins (FIG. 17A)
# [5] = target: B3; assay: co-IP with anti-HA beads, IL-17RB-KO BxPC3 cells, 50 ng/ml rIL-17B (FIG. 14B)
# Experimental: as §1
# [6] = target: T1, HA-TRIM56 (TRIM56-HA, HA-tagged …); assay: reciprocal co-IP, 293T cells, rIL-17B (FIG. 6D)
# [7] = target: T2, TRIM56 (tripartite-motif 56), endogenous; assay: co-IP with anti-Flag beads (FIG. 17F)
binder,measurement,setting,value
B1,binding result,[1],binds
B2,binding result,[2],binds
B3,binding result,[3],binds
B4,binding result,[4],no binding
same,binding result,[5],binds
B5,binding result,[6],no binding
B6,binding result,[7],no binding (tested: 50 ng/ml rIL-17B)
same,binding result,[6],no binding
B7,binding result,[6],no binding
